Data as given in US20070178531A1 (BIOCHECK, published 2007).
Numbering of substitutions follows the chain as printed.

T1: Human Id1: Histidine (human, UniProt P41134 1-155, limits assumed)
T1 construct: Fusion protein made in E. coli from vector pGW07; also called h-Id1: his; not shown: His tag
T1 sequence (looked up): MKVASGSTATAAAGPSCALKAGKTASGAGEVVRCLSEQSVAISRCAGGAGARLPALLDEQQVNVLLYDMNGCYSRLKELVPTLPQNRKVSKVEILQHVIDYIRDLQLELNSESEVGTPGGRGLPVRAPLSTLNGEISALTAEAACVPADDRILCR

T2: Human Id3: Histidine (human, UniProt Q02535 1-119 at identity 1.00))
T2 construct: Fusion protein made in E. coli from vector pGW07; also called h-Id3: His; Human Id3 (coated wells); not shown: His tag
T2 chain: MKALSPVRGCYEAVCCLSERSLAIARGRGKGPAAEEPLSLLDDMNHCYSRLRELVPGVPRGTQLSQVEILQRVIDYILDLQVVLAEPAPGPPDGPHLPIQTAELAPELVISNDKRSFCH

T3: Mouse Id3: Histidine (mouse, UniProt P41133 1-119)
T3 construct: Fusion protein made in E. coli from vector pGW07; also called m-Id3: His; Mouse Id3 (coated wells); not shown: His tag
T3 sequence: T2 chain with G31S, A33S, A34T, A105T, N112K

T4: Human Id2: Histidine (human, UniProt Q02363 1-134, limits assumed)
T4 construct: Fusion protein made in E. coli from vector pGW07; also called h-Id2: His; not shown: His tag
T4 sequence (looked up): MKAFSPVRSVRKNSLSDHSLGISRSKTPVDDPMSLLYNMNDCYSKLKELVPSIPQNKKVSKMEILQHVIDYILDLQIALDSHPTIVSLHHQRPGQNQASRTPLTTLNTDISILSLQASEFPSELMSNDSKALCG

T5: Mouse Id1: Histidine (mouse, UniProt P20067-2 1-148, limits assumed)
T5 construct: Fusion protein made in E. coli from vector pGW07; also called m-Id1-His; not shown: His tag
T5 sequence (looked up): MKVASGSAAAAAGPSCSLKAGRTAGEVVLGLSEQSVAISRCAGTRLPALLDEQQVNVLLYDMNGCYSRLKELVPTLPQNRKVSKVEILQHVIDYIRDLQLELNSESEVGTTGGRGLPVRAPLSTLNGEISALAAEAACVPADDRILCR

T6: Mouse Id2: Histidine (mouse, UniProt P41136 1-134, limits assumed)
T6 construct: Fusion protein made in E. coli from vector pGW07; also called m-Id2: His; not shown: His tag
T6 sequence (looked up): T4 sequence (looked up) with S60T, A131V

B1: rabbit monoclonal anti-mouse/human Id3, clone #BCH-4/#16-1 (antibody, V domains shown)
VH: QSVEESGGRLVTPGTPLTLTCTASGFSLSSYYIHWVRQAPGKALEWIGYISDGGTTYYASWAKGRFTISKTSSTTVDLKMTSLTTEDTATYFCARQGFNIWGPGTLVTVSL
VL: AVLTQTPSPVSAAVGGTVTISCQSSQSVYNNNWLSWFQQKSGQPPKLLIYETSKLESGVPSRFKGSGSGTQFTLTIIDVQCDDAATYYCLGGYWTTSDNNIFGGGTEVVVK
notes: Rabbit IgG from a rabbit hybridoma; also called m/h Id3 MoAb 16-1
B2: rabbit monoclonal anti-mouse/human Id3, clone #BCH-4/#42-1 (antibody, V domains shown)
VH: B1 VH
VL: B1 VL with T95S
notes: Rabbit IgG from a rabbit hybridoma; also called m/h Id3 MoAb 42-1
B3: rabbit monoclonal anti-mouse/human Id3, clone #BCH-4/#6-1 (antibody, V domains shown)
VH: B1 VH with S30N, Y31V, A43G, G54D, T56A, Y57R, S60T, D77N
VL: B1 VL with T19S, Y29W, S41P, I77S, I101V
notes: Rabbit IgG from a rabbit hybridoma; also called m/h Id3 MoAb 6-1
B4: rabbit monoclonal anti-mouse/human Id3, clone #BCH-4/#17-3 (antibody, V domains shown)
VH: B1 VH with S30N, Y31V, A43G, G54D, T56A, Y57R, S60T, D77N
VL: B1 VL with T19S, Y29W, S41P, I77S, I101V
notes: Rabbit IgG from a rabbit hybridoma; also called m/h Id3 MoAb 17-3; BCH-3/#17-3
B5: rabbit monoclonal anti-human Id3, clone #BCH-4/#3-3 (antibody, V domains shown)
VH: QSVEESGGRLVTPGTPLTLTCTVSGIDLSSYAMSWVRQAPGKGLEWIGVIFPSNNVYYASWAKGRFTISKTSTTVDLKITSPTTEDTATYFCASMGAFDSWGPGTLVTVSS
VL: QVLTQTPSPVSAAVGGTVTINCQASQSIYNDNDLAWFQQKPGQPPKLLIYDASTLTSGVPSRFKGSGSGTQFTLTISDLDCDDAATYYCAARYSGNIYGFGGGTEVVVK
notes: Rabbit IgG from a rabbit hybridoma; also called h Id3 MoAb 3-3

Target: T1, Human Id1: Histidine
Assay: ELISA on coated wells, summary

Binder	Cross-reactivity (%)
B1	< 1
B2	< 1
B3	< 1
B4	< 1

Target: T2, Human Id3: Histidine
Assay: ELISA on coated wells, summary

Binder	Cross-reactivity (%)
B1	100
B2	100
B3	100
B4	100

Target: T3, Mouse Id3: Histidine
Assay: ELISA on coated wells, summary

Binder	Cross-reactivity (%)
B1	100
B2	100
B3	100
B4	100

Target: T4, Human Id2: Histidine
Assay: ELISA on coated wells, summary

Binder	Cross-reactivity (%)
B1	< 1
B2	< 1
B3	< 1
B4	< 1

Target: T5, Mouse Id1: Histidine
Assay: ELISA on coated wells, summary

Binder	Cross-reactivity (%)
B1	< 1
B2	< 1
B3	< 1
B4	< 1

Target: T6, Mouse Id2: Histidine
Assay: ELISA on coated wells, summary

Binder	Cross-reactivity (%)
B1	< 1
B2	< 1
B3	< 1
B4	< 1

Target: T2, Human Id3: Histidine
Assay: ELISA, Ab 0.500 µg/ml
Description: (§1) The rabbit monoclonal anti-human Id3 (clone #3-3) and the rabbit monoclonal anti-mouse/human Id3 (clones #6-1, 16-1, 17-3, and 42-1) produced in Example 6 were tested reactivity against the following antigens: mouse Id1:His, human Id1:His, mouse Id2:His, human Id2:His, mouse Id3:His, human Id3:His, mouse Id4:His, human Id4:His and GST.
(§2) 1. Microtiter wells (prepared in accordance with Example 6) were coated (0.1 μg/well) with mouse Id1:His, human Id1:His, human Id2:His, human Id3:His, and 1.0 μg/well with GST. [0155] 2. Antibody Diluent: 0.25% (w/v) BSA in 0.015M KPO₄ Buffer, 0.85% (w/v) NaCl, 0.1% (w/v) NaN₃, pH=7.40 [0156] 3. Rabbit monoclonal anti-human Id3 (clone #3-3) prepared in Example 7 was diluted to […] with the antibody diluent. […] 4. Rabbit monoclonal anti-mouse/human Id3 (clones #6-1, 16-1, 17-3, 42-1) prepared in Example 7 was diluted to 0.005, 0.010, 0.025, 0.05, 0.10, 0.25, and 0.50 μg/ml with the antibody diluent. […] 5. Conjugate Diluent: 50% (v/v) which consists of an aqueous solution containing Fetal Bovine Serum in 0.05 M Tris, 1% (v/v) Proclin-300, pH 7.6. [0159] 6. Conjugate: Goat anti-rabbit IgG (H+L)-HRP conjugate. [0160] 7. TMB reagent. […] 8. Stop solution (1 N HCI). Method
(§3) 1. Dispense 100 μL of antibody diluent, diluted rabbit monoclonal human Id3, and mouse/human Id3 hybridoma supernatants into appropriate wells. […] 2. Incubate at room temperature with mechanical shaking at 750 rpm for 90 minutes. [0165] 3. Remove the incubation mixture by flicking plate content into an appropriate waste container followed by rinsing the wells 5 times with distilled water. [0166] 4. Strike the wells sharply onto absorbent paper or paper towels to remove all residual water droplets. [0167] 5. Dispense 100 μL of 1:50,000 Goat Anti-Rabbit IgG-HRP Conjugate Reagent into each well. Gently mix for 5 seconds. [0168] 6. Incubate at room temperature with mechanical shaking at 750 rpm for 90 minutes. [0169] 7. Repeat procedures 3 and 4. [0170] 8. Dispense 100 μL of TMB Reagent into each well. Gently mix for 5 seconds. [0171] 9. Incubate at room temperature with mechanical shaking at 750 rpm for 20 minutes. […] 10.

Binder	A450 [A450]
B1	3.37
B2	3.75
B3	3.56
B4	3.69

Target: T3, Mouse Id3: Histidine
Assay: ELISA, Ab 0.500 µg/ml
Description: as §1, §2, §3

Binder	A450 [A450]
B1	3.61
B2	3.63
B3	3.81
B4	3.74

Target: T7, glutathione S-transferase (GST) (UniProt P08515 1-218 = GST)
T7 construct: also called carrier protein GST
Assay: ELISA, Ab 0.500 µg/ml
Description: as §1, §2, §3

T7 sequence (P08515 whole entry): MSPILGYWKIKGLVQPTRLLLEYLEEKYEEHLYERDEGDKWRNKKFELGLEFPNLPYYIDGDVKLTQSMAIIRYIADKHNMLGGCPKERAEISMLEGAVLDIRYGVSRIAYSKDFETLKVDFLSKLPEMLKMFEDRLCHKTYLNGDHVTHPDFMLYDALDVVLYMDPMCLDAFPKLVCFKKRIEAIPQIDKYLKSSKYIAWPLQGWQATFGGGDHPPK

Binder	A450 [A450]
B5	0.05
B1	0.053
B2	0.049
B3	0.054
B4	0.053

Target: T5, Mouse Id1: Histidine
Assay: ELISA, Ab 0.500 µg/ml
Description: as §1, §2, §3

Binder	A450 [A450]
B5	0.05
B1	0.047
B2	0.053
B3	0.051
B4	0.06

Target: T6, Mouse Id2: Histidine
Assay: ELISA, Ab 0.500 µg/ml
Description: as §1, §2, §3

Binder	A450 [A450]
B5	0.05
B1	0.067
B2	0.075
B3	0.066
B4	0.069
